In US20240400614A1, “CLEAVABLE PEPTIDES AND METHODS OF USE THEREOF” (Bright Peak Therapeutics AG, priority 2023, published 2024):
Square brackets hold non-standard residues; d marks the D form. Ends that are not written are not given here. Tyr(3-NO2) = N[C@@H](Cc1ccc(O)c([N+](=O)[O-])c1)C(=O)O; Nle = CCCC[C@H](N)C(=O)O; 2Abz = Nc1ccccc1C(=O)O

How the values were obtained:
Type in all cases: biochemical
MMP-2 = molecular target: T1, MMP-2 (Homo sapiens, UniProt P08253); experiment: FRET peptide cleavage efficiency with MMP-2
T1 construct: purchased SIGMA PF023
T1 sequence (P08253 110-660): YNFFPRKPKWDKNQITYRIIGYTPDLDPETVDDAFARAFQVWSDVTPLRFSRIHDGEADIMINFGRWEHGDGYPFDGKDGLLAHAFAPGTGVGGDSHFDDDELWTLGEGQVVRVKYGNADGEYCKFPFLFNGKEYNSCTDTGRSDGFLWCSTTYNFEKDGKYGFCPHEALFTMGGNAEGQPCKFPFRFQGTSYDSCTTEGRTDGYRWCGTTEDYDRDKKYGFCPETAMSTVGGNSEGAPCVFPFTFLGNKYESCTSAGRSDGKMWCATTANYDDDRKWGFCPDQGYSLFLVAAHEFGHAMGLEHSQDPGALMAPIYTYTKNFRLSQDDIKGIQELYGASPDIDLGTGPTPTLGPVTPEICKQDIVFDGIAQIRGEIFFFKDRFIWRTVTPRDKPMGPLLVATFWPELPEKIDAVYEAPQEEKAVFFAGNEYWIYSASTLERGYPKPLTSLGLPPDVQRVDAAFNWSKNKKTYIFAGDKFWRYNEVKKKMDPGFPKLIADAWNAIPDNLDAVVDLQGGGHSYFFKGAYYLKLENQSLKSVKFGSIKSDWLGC

matriptase = molecular target: T2, matriptase (Homo sapiens, UniProt Q9Y5Y6); experiment: FRET peptide cleavage efficiency with matriptase
T2 construct: purchased R&D Systems 3946-SEB
T2 sequence (Q9Y5Y6 615-855 limits assumed): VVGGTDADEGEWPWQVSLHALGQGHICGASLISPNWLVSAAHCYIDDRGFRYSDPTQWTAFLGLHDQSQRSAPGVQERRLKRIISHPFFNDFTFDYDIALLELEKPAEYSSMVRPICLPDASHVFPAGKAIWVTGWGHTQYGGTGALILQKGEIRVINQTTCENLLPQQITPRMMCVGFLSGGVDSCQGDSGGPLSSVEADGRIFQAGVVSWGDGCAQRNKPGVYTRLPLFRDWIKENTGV

uPA = uPA (Homo sapiens, UniProt P00749); experiment: FRET peptide cleavage efficiency with uPA
[1] = 200 uM linker, 1 ug/ml protease, 37° C., buffer C pH 7.5
[2] = 200 uM linker, 1 ug/ml protease, 37° C., buffer B pH 9.0
[3] = 200 uM linker, 1 ug/ml protease, 37° C., buffer A pH 8.5

Substance	% cleavage MMP-2 t = 15 min (MMP-2; [1]) [%]	% cleavage MMP-2 t = 60 min (MMP-2; [1]) [%]	% cleavage MMP-2 t = 120 min (MMP-2; [1]) [%]	% cleavage Matriptase t = 15 min (matriptase; [2]) [%]	% cleavage Matriptase t = 60 min (matriptase; [2]) [%]	% cleavage Matriptase t = 120 min (matriptase; [2]) [%]	% cleavage uPA t = 15 min (uPA; [3]) [%]	% cleavage uPA t = 60 min (uPA; [3]) [%]	% cleavage uPA t = 120 min (uPA; [3]) [%]	% cleavage Matriptase t = 15 min (matriptase) [%]	% cleavage Matriptase t = 60 min (matriptase) [%]	% cleavage Matriptase t = 120 min (matriptase) [%]	% cleavage MMP-2 t = 15 min (MMP-2) [%]	% cleavage MMP-2 t = 60 min (MMP-2) [%]	% cleavage MMP-2 t = 120 min (MMP-2) [%]	% cleavage uPA t = 15 min (uPA) [%]	% cleavage uPA t = 60 min (uPA) [%]	% cleavage uPA t = 120 min (uPA) [%]
KLFSSKQ ([2Abz]KLFSSKQ[Tyr(3-NO2)]-NH2) [LNK072]	1	13	25	–	–	–	–	–	–	–	–	–	–	–	–	–	–	–
KWGKSAPLGLAG ([2Abz]KWGKSAPLGLAG[Tyr(3-NO2)]-NH2) [LNK026]	69	98	98	97	86	86	0	1	3	–	–	–	–	–	–	–	–	–
PASNRRLPLGLAG ([2Abz]PASNRRLPLGLAG[Tyr(3-NO2)]-NH2) [LNK018]	40	83	87	49	92	97	0	0	0	–	–	–	–	–	–	–	–	–
RQRRS-Nle-PLGLAG ([2Abz]RQRRS[Nle]PLGLAG[Tyr(3-NO2)]-NH2) [LNK025]	64	97	98	97	84	77	0	1	2	–	–	–	–	–	–	–	–	–
RQRRSAAPLGLAG ([2Abz]RQRRSAAPLGLAG[Tyr(3-NO2)]-NH2) [LNK028]	72	99	99	97	86	79	0	1	2	–	–	–	–	–	–	–	–	–
RQRRSAPLGLAG ([2Abz]RQRRSAPLGLAG[Tyr(3-NO2)]-NH2) [LNK009]	72	99	99	71	45	31	0	1	3	–	–	–	–	–	–	–	–	–
RQRRSVVGG ([2Abz]RQRRSVVGG[Tyr(3-NO2)]-NH2) [LNK029]	0	0	0	96	96	98	0	0	1	–	–	–	–	–	–	–	–	–
RYGKSAPLGLAG ([2Abz]RYGKSAPLGLAG[Tyr(3-NO2)]-NH2) [LNK027]	66	99	99	99	97	98	3	9	17	–	–	–	–	–	–	–	–	–
SGRVLGPAGLVG (Abz-SGRVLGPAGLVG[Tyr(3-NO2)]) [LNK005]	–	–	–	–	–	–	–	–	–	15	63	86	100	98	97	0	0	1
SGRVLGPANLVG (Abz-SGRVLGPANLVG[Tyr(3-NO2)]) [LNK006]	–	–	–	–	–	–	–	–	–	19	71	92	98	98	96	0	0	1
SGRVLGPLNLSG ([2Abz]SGRVLGPLNLSG[Tyr(3-NO2)]-NH2) [LNK008]	71	99	99	20	72	92	1	1	2	–	–	–	–	–	–	–	–	–
SGRVLPAGLVG ([2Abz]SGRVLPAGLVG[Tyr(3-NO2)]-NH2) [LNK007]	99	95	94	23	79	97	0	0	1	–	–	–	–	–	–	–	–	–
SGRVLPANLVG ([2Abz]SGRVLPANLVG[Tyr(3-NO2)]-NH2) [LNK015]	94	99	98	25	78	96	0	0	1	–	–	–	–	–	–	–	–	–
SGRVLPLGMRA ([2Abz]SGRVLPLGMRA[Tyr(3-NO2)]-NH2) [LNK023]	96	98	98	38	92	99	2	2	3	–	–	–	–	–	–	–	–	–
SGRVLPYAMTA ([2Abz]SGRVLPYAMTA[Tyr(3-NO2)]-NH2) [LNK024]	55	97	99	44	92	98	1	0	1	–	–	–	–	–	–	–	–	–
